Source: US9969998B2, “Compositions of adenosine deaminase-2 (ADA2), variants thereof and methods of using same” (Halozyme, Inc., priority 2014, dated 2018)
Numbering of substitutions follows the chain as printed. Names and notes keep the numbering of the source. Like-named read-outs stand apart in the source and are kept apart here.

What was measured:
[1] = cited from earlier work
[2] = tested on: CT26 murine colon cancer tumor; assay: Tumor growth inhibition, CT26 syngeneic tumor model; type: in vivo, BALB/c mice
Method: Forty-four (44) male BALB/c mice were inoculated subcutaneously with 5×10^6 murine colon cancer tumor cells (CT26, ATCC CRL-2638) in 0.1 mL injection volume per animal. Tumor volume was determined using digital calipers by caliper measurement of the length (L) and width (W) of the solid tumor masses. Tumor volume (TV) was calculated as: (L×W^2)/2. Tumors were allowed to grow and tumor bearing mice were staged until when the tumors were palpable and measured to be about 50-100 mm^3.
PEGylated rHuADA2-K374D (K371D by mature numbering) was prepared as described in Example 8.A, with minor modifications to generate a preparation in which approximately 100% of the molecules were PEGylated as assessed by SDS-PAGE.
For treatment, animals were randomized into four groups (n=8/group). CT26 tumor bearing mice were then injected intravenously (IV) every other day, at 3 mg/kg body weight, 10 mg/kg body weight or 30 mg/kg body weight doses of PEG-K374D (PEG-K371D by mature numbering) or vehicle control (buffer only) every other day. Tumor volume was measured at day 0 and 8 using caliper measurement as described above. […] One mouse from the vehicle group was excluded due to significant tumor growth inhibition.

[3] = In vivo pharmacokinetics of PEGylated rHuADA2 combination variants (Example 14); settings: BALB/c mice, 3 mg/kg intravenous
Description: Twenty-seven (27) male BALB/c mice were divided into three (3) dosing groups, and were further divided into three (3) groups each for sampling of blood at different time points. Thus, the mice were randomized into nine (9) groups total. Mice were weighed prior to the start of the study, and randomized into the 9 groups based upon their body weights. In each sampling group, three groups of (3) mice were used for dosing each test article to prevent oversampling of the blood from the animals. For measurement of baseline ADA2 levels, a blood sample was obtained from 12 randomly chosen mice and plasma was prepared using the anti-coagulant potassium (K3) ethylene diamine tetraacetic acid (K3-EDTA). All blood was collected by submandibular venipuncture.
PEGylated ADA2 variants were prepared using the PEGylation method as described in Example 8.A, with minor modifications. Briefly, all ADA2 variants at 10 mg/mL were PEGylated with linear PEG-20K (JenKem Technology, Plano, Tex.; Cat. No. M-SCM-20K) at 1:15 molar ratio and incubated first at 37° for 30 min, then at 4° C. for 16 hours.
Approximately 200 μL of whole blood was collected at designated sampling time points from appropriate groups of mice as indicated below in Table 38 and kept on ice until plasma preparation. The initial two (2) blood samples were collected by submandibular venipuncture. The final sample was collected from a terminal bleed. Plasma was prepared by centrifuging the blood (500×g for 5 min at 4° C.), transferring the plasma to a fresh tube and immediately freezing at −80° C. until the adenosine deaminase activity assay. Adenosine deaminase activity was determined as described in Example 4.
Non-compartmental analysis (NCA) was conducted using the Phoenix WinNonlin version 6.3 (Pharsight Corp, St. Louis, Mo. 63101). The half-life, or time taken for the activity of ADA2 proteins to be reduced by half, was calculated. Also, total exposure was measured by calculating the Area Under the Concentration-time Curve (AUC). The AUC and half-life values were obtained from the unweighted average from each test article group. The following options in the Phoenix WinNonlin program were used for data analysis: (i) linear trapezoidal/linear interpolation option for AUC; (ii) best-fit slope selection option for terminal slope; and (iii) uniform weighting of the data.

CT26 syngeneic tumors = assay: Tumor growth inhibition of combination therapy with anti-PD-1 and anti-CTLA4, CT26 peritibial tumor model; type: in vivo, Balb/C mice; settings: study day 10
Method: The murine CT26 syngeneic tumor model was used to compare the antitumor activity of combination therapy using PEGylated ADA2 with checkpoint inhibitors anti-PD-1 and anti-CTLA4 antibodies. CT26 syngeneic tumors were produced by injecting 2×10^5 CT26 cells in 0.05 mL injection volume per animal into the right peritibial muscle of male Balb/C mice. Tumor bearing mice were staged into treatment groups when the average tumor size reached 150 mm^3.
For treatment, animals were randomized into 8 groups (n=8/group) as follows: 1) saline vehicle control, 2) PEG-ADA2-K374D, 3) α-CTLA4 antibody (Clone 9D9, Cat. No. BE0164; BioXCell, West Lebanon, N.H., 4) α-PD-1 antibody (Clone RMP1-14, Cat. No. BE0146; BioXCell, West Lebanon, N.H.), 5) PEG-ADA2-K374D+α-CTLA4; 6) PEG-K374D+α-PD-1; 7) α-CTLA4+α-PD-1, or 8) Triple combo (PEG-ADA2-K374D+α-CTLA4+α-PD-1). PEG-ADA2-K374D was dosed intravenously 3× weekly at 10 mg/kg, α-CTLA4 was dosed intraperiotoneally biweekly at 4 mg/kg, and α-PD-1 was dosed intraperitoneally biweekly at 4 mg/kg. The sequence of dosing in the combination groups was as follows: PEG-ADA2-K374D followed by α-CTLA4 followed by α-PD-1.
Tumor volume was assessed twice weekly via ultrasound imaging using the Vevo2100 (Visual Sonics, Toronto, Canada) to determine tumor growth inhibition (TGI). Animals were anesthetized using light isoflurane anesthesia while the tumor volumes were measured. For tumor measurement, the region of interest was covered in ultrasound gel (Parker Laboratories, Fairfield, N.J.), and the RMV-716 (focal depth=17.5 mm) scan head was positioned directly over the region of interest. While in 2D-Mode, the approximate center of the tumor was located, and subsequently an image (˜150-200 frames) was captured using 3D-mode. Approximately 15-30 frames out of 150-200 frames were analyzed and a tumor volume calculated and expressed in mm^3. Tumor growth Inhibition (TGI) was calculated as described above.

[4] = day 8; 3 mg/kg IV every other day
[5] = day 8; 10 mg/kg IV every other day
[6] = day 8; 30 mg/kg IV every other day
[7] = vs non-PEGylated WT rHuADA2 of Example 9

B1: ADA2: wild-type human adenosine deaminase 2, mature form SEQ ID NO:5, homodimer (protein, listed as Homo sapiens)
chain: IDETRAHLLLKEKMMRLGGRLVLNTKEELANERLMTLKIAEMKEAMRTLIFPPSMHFFQAKHLIERSQVFNILRMMPKGAALHLHDIGIVTMDWLVRNVTYRPHCHICFTPRGIMQFRFAHPTPRPSEKCSKWILLEDYRKRVQNVTEFDDSLLRNFTLVTQHPEVIYTNQNVVWSKFETIFFTISGLIHYAPVFRDYVFRSMQEFYEDNVLYMEIRARLLPVYELSGEHHDEEWSVKTYQEVAQKFVETHPEFIGIKIIYSDHRSKDVAVIAESIRMAMGLRIKFPTVVAGFDLVGHEDTGHSLHDYKEALMIPAKDGVKLPYFFHAGETDWQGTSIDRNILDALMLNTTRIGHGFALSKHPAVRTYSWKKDIPIEVCPISNQVLKLVSDLRNHPVATLMATGHPMVISSDDPAMFGAKGLSYDFYEVFMGIGGMKADLRTLKQLAMNSIKYSTLLESEKNTFMEIWKKRWDKFIADVATK
modifications: ADA2 mature protein
Km ([1]; for adenosine, wild-type enzyme in humans, read-out: Km): ~2000 µM | Km ([1]; read-out: Km for adenosine): ~2250 µM

B2: PEG-K374D: rHuADA2-K374D (SEQ ID NO:20) PEGylated on surface exposed lysines with linear PEG-20K (conjugate)
chain: B1 chain with K371D
modifications: linear PEG-20K on surface lysines; human ADA2 K371D, mature numbering
Average Tumor Volume ([2]; 3 mg/kg IV every other day; day 8): 257.72 mm^3 | Tumor Growth Inhibition ([2]; 3 mg/kg IV every other day; day 8; vs vehicle): 50% | Average Tumor Volume ([2]; 10 mg/kg IV every other day; day 8): 207.84 mm^3 | Tumor Growth Inhibition ([2]; 10 mg/kg IV every other day; day 8; vs vehicle): 63% | Average Tumor Volume ([2]; 30 mg/kg IV every other day; day 8): 187.32 mm^3 | Tumor Growth Inhibition ([2]; 30 mg/kg IV every other day; day 8; vs vehicle): 68% | Average Tumor Volume [2, 4]: 257.72 mm^3 | tumor growth inhibition (TGI) [2, 4]: 50% | Average Tumor Volume [2, 5]: 207.84 mm^3 | tumor growth inhibition (TGI) [2, 5]: 63% | Average Tumor Volume [2, 6]: 187.32 mm^3 | tumor growth inhibition (TGI) [2, 6]: 68% | AUC (total exposure) ([3]; plasma ADA activity): 4,662 (U * h)/mL | Half-life slow (t1/2) ([3]; plasma ADA activity): 2,256 min | Percent increase in AUC compared to WT ADA2 [3, 7]: 14,177% | Percent increase in t1/2 compared to WT ADA2 [3, 7]: 3,269% | Average Group Tumor Volume, SD10 (CT26 syngeneic tumors; PEG-ADA2-K374D 10 mg/kg IV 3x weekly, α-CTLA4 4 mg/kg IP biweekly, α-PD-1 4 mg/kg IP biweekly, ultrasound): 1499.11 mm^3 | Tumor Growth Inhibition (CT26 syngeneic tumors; PEG-ADA2-K374D 10 mg/kg IV 3x weekly, α-CTLA4 4 mg/kg IP, α-PD-1 4 mg/kg IP biweekly): exhibited tumor growth inhibition activity | TGI (CT26 syngeneic tumors; compared to vehicle control): 5% | Volume Range (CT26 syngeneic tumors; range of tumor volume of all animals in the group): 1213-1594 mm^3
